The values that follow come from publication PMC4621360 (eLife, 2015).

The assay addresses T1, FG-N, MGT-Nsp1(48–172)-… (S. cerevisiae).
T1 construct: added N-terminal residues; Nsp1, FG nucleoporin, N-terminal Asn-rich segment of low charge with irregularly spaced FG repeats, residues 48-172; Isotope-labelled for NMR; source: E. coli BL21DE3 Gold, purified (8 M urea throughout, Talon resin); also observed inside living E. coli
The experiment in a line: NMR titration; HSQC test of reversibility in buffer A; FG-N 50 μM, Kap95 added to 25 μM, then diluted with more FG-N. The following applies: both partners purified.

B1: Kap95 (natural protein, S. cerevisiae)
chain: MSTAEFAQLLENSILSPDQNIRLTSETQLKKLSNDNFLQFAGLSSQVLIDENTKLEGRILAALTLKNELVSKDSVKTQQFAQRWITQVSPEAKNQIKTNALTALVSIEPRIANAAAQLIAAIADIELPHGAWPELMKIMVDNTGAEQPENVKRASLLALGYMCESADPQSQALVSSSNNILIAIVQGAQSTETSKAVRLAALNALADSLIFIKNNMEREGERNYLMQVVCEATQAEDIEVQAAAFGCLCKIMSLYYTFMKPYMEQALYALTIATMKSPNDKVASMTVEFWSTICEEEIDIAYELAQFPQSPLQSYNFALSSIKDVVPNLLNLLTRQNEDPEDDDWNVSMSAGACLQLFAQNCGNHILEPVLEFVEQNITADNWRNREAAVMAFGSIMDGPDKVQRTYYVHQALPSILNLMNDQSLQVKETTAWCIGRIADSVAESIDPQQHLPGVVQACLIGLQDHPKVATNCSWTIINLVEQLAEATPSPIYNFYPALVDGLIGAANRIDNEFNARASAFSALTTMVEYATDTVAETSASISTFVMDKLGQTMSVDENQLTLEDAQSLQELQSNILTVLAAVIRKSPSSVEPVADMLMGLFFRLLEKKDSAFIEDDVFYAISALAASLGKGFEKYLETFSPYLLKALNQVDSPVSITAVGFIADISNSLEEDFRRYSDAMMNVLAQMISNPNARRELKPAVLSVFGDIASNIGADFIPYLNDIMALCVAAQNTKPENGTLEALDYQIKVLEAVLDAYVGIVAGLHDKPEALFPYVGTIFQFIAQVAEDPQLYSEDATSRAAVGLIGDIAAMFPDGSIKQFYGQDWVIDYIKRTRSGQLFSQATKDTARWAREQQKRQLSL
notes: Kap95, nuclear transport factor; also called TF; transport factor; source: prepared as previously described (Tetenbaum-Novatt et al., 2012)
On to B1, for which the binding result is given as “binds”.
